Results published in patent US20170291955A1 (AstraZeneca / MedImmune, published 2017).

T1: human HER4 recombinant extracellular domain protein (human, UniProt Q15303 26-651)
T1 construct: extracellular domain
T1 sequence (looked up): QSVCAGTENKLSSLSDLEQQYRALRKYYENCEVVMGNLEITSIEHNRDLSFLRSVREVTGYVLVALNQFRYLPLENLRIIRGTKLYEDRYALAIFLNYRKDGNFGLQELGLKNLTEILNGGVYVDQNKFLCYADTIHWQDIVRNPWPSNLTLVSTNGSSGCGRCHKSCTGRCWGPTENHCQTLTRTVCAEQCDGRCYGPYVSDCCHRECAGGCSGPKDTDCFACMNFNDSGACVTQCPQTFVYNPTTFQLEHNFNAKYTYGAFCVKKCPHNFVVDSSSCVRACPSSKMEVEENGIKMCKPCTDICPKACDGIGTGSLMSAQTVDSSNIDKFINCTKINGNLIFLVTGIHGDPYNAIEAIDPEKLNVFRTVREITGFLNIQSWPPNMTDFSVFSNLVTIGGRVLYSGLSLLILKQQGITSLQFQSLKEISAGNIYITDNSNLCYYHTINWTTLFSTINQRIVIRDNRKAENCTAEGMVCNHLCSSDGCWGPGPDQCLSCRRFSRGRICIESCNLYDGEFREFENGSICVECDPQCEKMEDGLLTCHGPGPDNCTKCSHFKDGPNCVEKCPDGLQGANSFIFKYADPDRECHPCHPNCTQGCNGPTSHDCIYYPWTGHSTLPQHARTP

T2: human FcγRIIA (human, UniProt P12318 36-218)
T2 construct: also called FcgRIIa
T2 sequence (looked up): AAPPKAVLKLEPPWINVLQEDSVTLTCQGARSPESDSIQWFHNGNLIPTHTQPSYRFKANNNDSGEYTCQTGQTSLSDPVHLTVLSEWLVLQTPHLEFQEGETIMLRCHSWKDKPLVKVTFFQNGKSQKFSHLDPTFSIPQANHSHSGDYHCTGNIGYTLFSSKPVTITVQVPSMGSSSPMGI

T3: human FcγRIIb (human, UniProt P31994 43-217)
T3 construct: also called FcgRIIb
T3 sequence (looked up): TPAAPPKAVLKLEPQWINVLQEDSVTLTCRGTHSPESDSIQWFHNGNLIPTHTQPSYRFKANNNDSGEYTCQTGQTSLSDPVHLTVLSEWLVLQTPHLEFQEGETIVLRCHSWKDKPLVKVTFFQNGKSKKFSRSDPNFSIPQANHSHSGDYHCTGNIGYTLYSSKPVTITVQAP

B1: Bs2Ab-39SH (bispecific antibody, human IgG1, kappa)
heavy: not shown
light: DIVMTQTPLSLSVTPGQPASISCKSSQSVFFRSNNKNILAWYLQKPGQPPQLLIYWASSRESGVPDRFSGSGSGTDFTLKISRVEAEDVGVYYCQQYFGSPFTFGPGTKVDIKRTVAAPSVFIFPPSDEQLKSGTASVVCLLNNFYPREAKVQWKVDNALQSGNSQESVTEQDSKDSTYSLSSTLTLSKADYEKHKVYACEVTHQGLSSPVTKSFNRGEC
B2: Bs3Ab-39SH (bispecific antibody, human IgG1, kappa)
heavy: not shown
light: B1 light
B3: Bs4Ab-39SH (bispecific antibody)
heavy: not shown
light: B1 light
B4: Bs4Ab-39SH_aFuc (bispecific antibody)
heavy: not shown
light: B1 light
notes: also called afucosylated Bs4Ab-39SH; homogenously afucosylated Bs4Ab-39SH
B5: Bs2Ab-39SH_aFuc (bispecific antibody, human IgG1, kappa)
heavy: not shown
light: B1 light
notes: also called afucosylated Bs2Ab-39SH; homogenously afucosylated Bs2Ab-39SH
B6: Bs2-4T (bispecific antibody, name in EU numbering)
heavy: not shown
light: B1 light
modifications: tubulysin 1508 (Compound T32) on engineered Cys 239 and Cys 442 (EU index), thiol-maleimide linkage
notes: Antibody-drug conjugate, DAR about 4; also called Bs2Ab-4T; Bs2Ab-39SH-(FCC) construct conjugated to 4 tubulysins
B7: Bs4-4T (bispecific antibody)
heavy: not shown
light: B1 light
modifications: tubulysin 1508 (Compound T32) on engineered Cys 239 and Cys 442 (EU index), thiol-maleimide linkage
notes: Antibody-drug conjugate, DAR about 4; also called Bs4Ab-4T; Bs4Ab-39SH-(FCC) conjugated to 4 tubulysins

Assays:
[1] = biological target: T4, human EGFR recombinant extracellular domain protein (human, UniProt P00533 25-645); experiment: capture ELISA as in Example 1
T4 construct: extracellular domain
Experimental: (§1) Antibody to be tested was prepared by diluting in a stepwise 1:3 serial dilution ranging from 50 nM down to 0.28 pM and then added to the wells in duplicate. After one hour of incubation, plates were washed, and goat anti-human IgG Fab HRP-conjugated secondary antibody was added to each well and the plates were incubated for 1 hour. The plates were washed and TMB substrate was added and incubated for 5-20 min to allow color development. The stop solution was added to the wells at the end of reaction and the plates were read at 450 nm. Binding signal (absorbance at 450 nm) was plotted against antibody concentration using Prism software.

[2] = biological target: T5, human HER3 recombinant extracellular domain protein (human, UniProt P21860 20-643); experiment: capture ELISA as in Example 1
T5 construct: extracellular domain
Experimental: as §1

[3] = biological target: T1, human HER4 recombinant extracellular …; experiment: capture ELISA as in Example 1
Experimental: as §1

C1q = C1q (Homo sapiens (Human), UniProt P02745 23-245; P02746 28-253; P02747 29-245); experiment: BIAcore per table head; method for C1q not described
human FcγRI = biological target: T6, human FcγRI (human, UniProt P12314 16-288); experiment: SPR, antibody immobilised, receptor injected, steady-state fit (table head: BIAcore; paragraph 688: ProteOn XPR36)
T6 construct: also called FcgRI
Experimental: (§2) The binding constants (KD) for the binding of anti-HER2 bispecific antibodies to human FcγRs were measured on a ProteOn XPR36 instrument. Briefly, the bispecific antibodies were immobilized at high density on a GLC sensor chip using a standard amino coupling chemistry as outlined by the instrument manufacturer. The final surface density of IgG measured approximately 3000 RU. A reference flow cell was also prepared on this sensor chip using the identical immobilization protocol minus protein. […] Each concentration of FcγR was injected over both the bispecific antibody and reference cell surfaces at a flow rate of 25 μL/min for 8 min, during which binding data were collected. Between injections, the surfaces were regenerated (i.e., bound FcγR was removed) with a 60-sec pulse of 5 mM HCl. Several buffer injections were also interspersed throughout the injection series. Later, one of these buffer injections along with the reference cell data was used to correct the binding data for any injection artifacts (e.g., nonspecific binding) through a technique commonly referred to as “double-referencing” (Myszka, 1999). After all binding data were collected, individual data sets were averaged for binding (Response at equilibrium [Req]) at each concentration (C), and then fit to a 1:1 binding isotherm (Req vs. C) plot.

human FcγRIIA = biological target: T2, human FcγRIIA; experiment: as above
Experimental: as §2

human FcγRIIIA-158F = biological target: T7, human FcγRIIIA-158F (human, UniProt P08637 17-208); experiment: as above
T7 construct: also called FcgRIIIa (158F)
Experimental: as §2

human FcγRIIb = biological target: T3, human FcγRIIb; experiment: as above
Experimental: as §2

human FcγRIIIA-158V = biological target: T8, human FcγRIIIA-158V (human, UniProt P08637 17-208); experiment: as above
T8 construct: also called FcgRIIIa (158V); hFcgRIIIA-158V
Experimental: as §2

T7 sequence (P08637 17-208 limits assumed): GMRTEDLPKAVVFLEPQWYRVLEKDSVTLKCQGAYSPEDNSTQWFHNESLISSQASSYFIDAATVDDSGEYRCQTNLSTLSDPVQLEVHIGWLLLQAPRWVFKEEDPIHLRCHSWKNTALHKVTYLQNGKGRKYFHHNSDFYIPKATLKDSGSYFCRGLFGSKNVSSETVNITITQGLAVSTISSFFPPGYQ
Chain of C1q (P02745 23-245 limits assumed, chain 1 of 3): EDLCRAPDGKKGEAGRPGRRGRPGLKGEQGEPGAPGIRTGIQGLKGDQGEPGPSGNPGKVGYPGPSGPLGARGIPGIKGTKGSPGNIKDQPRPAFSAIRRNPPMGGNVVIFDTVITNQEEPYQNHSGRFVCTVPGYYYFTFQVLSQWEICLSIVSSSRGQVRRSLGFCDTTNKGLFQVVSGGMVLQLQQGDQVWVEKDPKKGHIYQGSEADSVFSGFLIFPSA
Chain of C1q (P02746 28-253 limits assumed, chain 2 of 3): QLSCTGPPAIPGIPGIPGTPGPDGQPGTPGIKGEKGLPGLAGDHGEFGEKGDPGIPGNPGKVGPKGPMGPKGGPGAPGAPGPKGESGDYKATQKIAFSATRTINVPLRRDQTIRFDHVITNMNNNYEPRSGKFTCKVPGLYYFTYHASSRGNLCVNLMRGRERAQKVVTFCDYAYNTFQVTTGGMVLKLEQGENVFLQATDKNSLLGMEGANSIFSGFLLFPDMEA
Chain of C1q (P02747 29-245 limits assumed, chain 3 of 3): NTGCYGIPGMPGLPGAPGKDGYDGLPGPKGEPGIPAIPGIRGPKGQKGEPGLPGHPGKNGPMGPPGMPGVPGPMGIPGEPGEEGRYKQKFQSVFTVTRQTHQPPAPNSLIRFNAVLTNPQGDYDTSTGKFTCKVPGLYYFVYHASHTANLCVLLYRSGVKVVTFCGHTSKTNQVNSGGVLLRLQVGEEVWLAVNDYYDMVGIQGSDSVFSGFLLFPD
T6 sequence (P12314 16-288 limits assumed): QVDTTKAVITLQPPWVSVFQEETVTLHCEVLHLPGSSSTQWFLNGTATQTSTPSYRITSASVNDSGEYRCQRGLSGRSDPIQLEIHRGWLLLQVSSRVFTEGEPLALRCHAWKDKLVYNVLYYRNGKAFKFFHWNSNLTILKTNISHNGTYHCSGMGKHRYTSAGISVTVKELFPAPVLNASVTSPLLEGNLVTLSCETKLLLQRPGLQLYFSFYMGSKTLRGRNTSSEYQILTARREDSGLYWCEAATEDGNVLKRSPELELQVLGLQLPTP
T8 sequence (P08637 17-208 F176V limits assumed): as the sequence (P08637 17-208 limits assumed) above, with F160V counted along it

Binder | binding result [1] | binding result [2] | binding result [3] | Kd (C1q) [nM] | Kd (human FcγRI) [nM] | Kd (human FcγRIIA) [nM] | Kd (human FcγRIIIA-158F) [nM] | Kd (human FcγRIIb) [nM] | Kd (human FcγRIIIA-158V) [nM]
B1 | no binding | no binding | no binding | 75.6 | 7 | 1300 | 1990 | 2750 | –
B2 | no binding | no binding | no binding | – | – | – | – | – | –
B3 | no binding | no binding | no binding | 88.6 | 13 | 1190 | 1780 | 2790 | –
B4 | – | – | – | 446 | 0.98 | 1260 | 223 | 2560 | 45
B5 | – | – | – | 130 | 0.98 | 1250 | 216 | 2400 | 40
B6 | no binding | no binding | no binding | – | – | – | – | – | –
B7 | no binding | no binding | no binding | – | – | – | – | – | –
